Experiment in all cases: ITC
In general terms: Isothermal titration calorimetry measures the heat released or taken up as one component is titrated into another.

For assay [1], the target named is AP2 α-appendage (residues 695 to 938) (UniProt P17427 695-938).
The next assay concerns the target FCHO2-N1+N2 EEK mutant (human, UniProt Q0JRZ9-1 314-394, E320S | E321S | K326S).
Another assay concerns the target FCHO2-N1+N2 E336A+F339S (human, UniProt Q0JRZ9-1 314-394, E336A | F339S).

Chain of AP2 α-appendage (residues 695 to 938) (P17427 695-938): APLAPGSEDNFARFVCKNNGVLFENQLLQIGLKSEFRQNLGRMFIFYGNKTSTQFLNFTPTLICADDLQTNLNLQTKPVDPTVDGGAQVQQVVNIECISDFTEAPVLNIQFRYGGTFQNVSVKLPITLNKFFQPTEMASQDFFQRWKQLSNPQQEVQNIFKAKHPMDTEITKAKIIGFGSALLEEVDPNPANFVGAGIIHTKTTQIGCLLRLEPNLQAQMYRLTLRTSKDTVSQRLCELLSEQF

B1: FCHO1 C peptide (residues 426 to 448) (peptide)
chain: QSEEQVSKNLFGPPLESAFDHED
In assay [1], B1 had a Kd of 44 µM.

B2: Cμ2 (μ2 residues 160 to 435) (domain or fragment)
chain: GWRREGIKYRRNELFLDVLESVNLLMSPQGQVLSAHVSGRVVMKSYLSGMPECKFGMNDKIVIEKQGKGTADETSKSGKQSIAIDDCTFHQCVRLSKFDSERSISFIPPDGEFELMRYRTTKDIILPFRVIPLVREVGRTKLEVKVVIKSNFKPSLLAQKIEVRIPTPLNTSGVQVICMKGKAKYKASENAIVWKIKRMAGMKESQISAEIELLPTNDKKKWARPPISMNFEVPFAPSGLKVRYLKVFEPKLNYSDHDVIKWVRYIGRSGIYETRC
With B2, the Kd is 110 µM with FCHO2-N1+N2 EEK mutant and 55 µM with FCHO2-N1+N2 E336A+F339S.

One may read the Kd as the free concentration of one partner at which half of the binding sites on the other are occupied at equilibrium, for simple one-to-one binding. High values mean lower affinity, low ones higher affinity.

These data come from PMC9054013 (2022).
